Experimental data as given in US20190169301A1 (Boehringer Ingelheim, published 2019).
Residue numbers refer to the chain shown, from its start. Each block holds one binder with its values, some of them ahead of it.

Experiments:
[1] = target: T1, human CD40 on cells (CD40-transfected HEK293 cells, Ramos cells, human B cells, human platelets) (human, UniProt P25942 21-277); test: cell-based or functional assay
[2] = target: T2, cynomolgus monkey CD40 on cells (B cells, platelets) (cynomolgus monkey, UniProt G7PG38 21-278); test: EC50 ratio human/cyno; ratio > 1 means increased binding to Cyno compared to Human
T2 construct: whole, on cells

human CD40-Fc protein = target: T3, human CD40-Fc protein (human, UniProt P25942 21-193); test: ForteBio Octet, human CD40-Fc, +/- human serum
T3 construct: also called recombinant CD40 protein; not shown: Fc part
Experimental: Due to antibody and CD40-Fc bivalency avidity effects prevent Kds below 100 pM from being determined accurately. In addition, the binding to CD40-Fc was analyzed in the absence and presence of 50% human serum and no significant effect of serum on binding was observed (data not shown)

[3] = target: T1, human CD40 on cells (CD40-transfected …); test: flow cytometry, human CD40-transfected HEK293 cells
Experimental: (§1) The specific binding of humanized antibodies to cellular CD40 was analyzed by flow cytometry using human CD40-transfected HEK293 cells. Concentration-dependent binding of Antibody A, Antibody B, and Antibody C was observed. […] No binding was detected on CD40 negative cells such as non-transfected HEK293 cells or the T cell line HSB-2 thus confirming selective binding to CD40 (data not shown).

[4] = target: T1, human CD40 on cells (CD40-transfected …); test: cell binding, flow cytometry (cell type not given)
[5] = target: T1, human CD40 on cells (CD40-transfected …); test: flow cytometry (MFI) on CD40-transfected HEK cells
Experimental: as §1

[6] = target: T1, human CD40 on cells (CD40-transfected …); test: cell-based or functional assay; remark: listed apart in the source
[7] = target: T1, human CD40 on cells (CD40-transfected …); test: flow cytometry (mean fluorescence intensity), FITC-labeled antibody on human platelets
[8] = target: T1, human CD40 on cells (CD40-transfected …); test: flow cytometry (MFI) on human CD40-transfected HEK-293 cells
Experimental: as §1

[9] = target: T1, human CD40 on cells (CD40-transfected …); test: flow cytometry, directly labeled antibody, B cells in human whole blood (n = 6); range in brackets
[10] = target: T1, human CD40 on cells (CD40-transfected …); test: flow cytometry, directly labeled antibody, platelets in human whole blood (n = 5); range in brackets
[11] = target: T2, cynomolgus monkey CD40 on cells (B …); test: flow cytometry, directly labeled antibody, platelets in cynomolgus whole blood (n = 5); range in brackets
[12] = target: T2, cynomolgus monkey CD40 on cells (B …); test: flow cytometry, directly labeled antibody, B cells in cynomolgus whole blood (n = 5); range in brackets

T3 sequence (P25942 21-193 limits assumed): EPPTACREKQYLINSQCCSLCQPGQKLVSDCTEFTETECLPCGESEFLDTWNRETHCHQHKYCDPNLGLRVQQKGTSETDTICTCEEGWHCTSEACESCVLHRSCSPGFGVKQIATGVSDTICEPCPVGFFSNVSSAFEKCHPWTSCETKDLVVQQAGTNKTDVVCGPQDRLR
T1 sequence (P25942 21-277): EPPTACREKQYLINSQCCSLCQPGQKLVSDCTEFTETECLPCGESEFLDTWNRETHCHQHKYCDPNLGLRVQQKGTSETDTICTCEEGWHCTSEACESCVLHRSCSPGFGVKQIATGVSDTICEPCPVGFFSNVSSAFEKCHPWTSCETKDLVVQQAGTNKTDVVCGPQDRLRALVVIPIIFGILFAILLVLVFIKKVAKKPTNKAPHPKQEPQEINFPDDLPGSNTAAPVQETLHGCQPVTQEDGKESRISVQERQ

B cell proliferation:Agonism (SI*) [1]: < 2 SI (Stimulation Index)
Species cross-react.:Hu/Cyno Binding (EC50 ratios) [2]: 1 ratio
Kd (human CD40-Fc protein): < 0.1 nM
EC50 [3]: ~1 nM
EC50 [4]: 1.7 nM
EC50 (read off the curve) [5]: ~0.8 nM
B1: Antibody C (IgG1KO) (antibody, V domains shown)
VH: QVQLVQSGAEVKKPGASVKVSCTASGFNIKDYYVHWVKQAPGQGLEWMGRIDPEDGDSKYAPKFQGKATMTADTSTSTVYMELSSLRSEDTAVYYCTTSYYVGTYGYWGQGTLVTVSS
VL: DIQMTQSPSSLSASVGDRVTITCSASSSVSYMLWFQQKPGKAPKLLIYSTSNLASGVPSRFSGSGSGTDFTLTISSLQPEDFATYYCQQRTFYPYTFGGGTKVEIKR
notes: also called 2H11-159-94

B cell proliferation:Agonism (SI*) [1]: < 2 SI (Stimulation Index)
Kd (human CD40-Fc protein): < 0.1 nM
EC50 [3]: ~1 nM
EC50 [4]: 0.9 nM
B cell proliferation assay, average IC50 [6]: ~0.02 nM
B2: 4D11 (Kirin/Astellas) anti-CD40 antibody (antibody, V domains shown)
VH: QLQLQESGPGLLKPSETLSLTCTVSGGSISSPGYYGGWIRQPPGKGLEWIGSIYKSGSTYHNPSLKSRVTISVDTSKNQFSLKLSSVTAADTAVYYCTRPVVRYFGWFDPWGQGTLVTVSS
VL: AIQLTQSPSSLSASVGDRVTITCRASQGISSALAWYQQKPGKAPKLLIYDASNLESGVPSRFSGSGSGTDFTLTISSLQPEDFATYYCQQFNSYPTFGQGTKVEIK

binding result [7]: binds
B3: 2H11 (murine anti-human CD40 antibody) (antibody, V domains shown)
VH: EVQLQQSGAELVRPGASVKLSCTASGFNIKDYYVHWVKQRPEKGLEWIGRIDPEDGDSKYAPKFQGKATMTADTSSNTAYLHLSSLTSEDTAVYYCTTSYYVGTYGYWGQGTTLTVSS
VL: QIVLTQSPAIMSASPGEKVTITCSASSSVSYMLWFQQKPGTSPKLWIYSTSNLASGVPARFGGSGSGTSYSLTISRMEAEDAATYYCQQRTFYPYTFGGGTKLEIK
notes: Mouse monoclonal antibody

B cell proliferation:Agonism (SI*) [1]: < 2 SI (Stimulation Index)
Species cross-react.:Hu/Cyno Binding (EC50 ratios) [2]: 3 ratio
Kd (human CD40-Fc protein): < 0.1 nM
EC50 [3]: ~1 nM
EC50 [4]: 1.2 nM
EC50 (read off the curve) [5]: ~1 nM
B4: Antibody A (IgG1KO) (antibody, V domains shown)
VH: EVQLVESGGGLVKPGGSLRLSCAASGFTFSDYGMHWVRQAPGKGLEWVAYISSGNRIIYYADTVKGRFTISRDNAKNSLYLQMNSLRAEDTALYYCARQDGYRYAMDYWAQGTLVTVSS
VL: DIVMTQSPDSLAVSLGERATMSCKSSQSLLNSGNQKNYLTWHQQKPGQPPKLLIYWTSTRESGVPDRFSGSGSGTDFTLTISSLQAEDVAVYYCQNDYTYPLTFGGGTKVEIKR
notes: also called 20E2-12

EC50 [8]: 1 nM
EC50 [9]: 1.8 nM
B cell proliferation:Agonism (SI*) [1]: < 2 SI (Stimulation Index)
EC50 [10]: 4.6 nM
EC50 [11]: 3.9 nM
Species cross-react.:Hu/Cyno Binding (EC50 ratios) [2]: 2 ratio
Kd (human CD40-Fc protein): < 0.1 nM
EC50 [3]: ~1 nM
EC50 [12]: 2.1 nM
EC50 [4]: 1.5 nM
EC50 (read off the curve) [5]: ~2 nM
B5: Antibody B (IgG1KO) (antibody, V domains shown)
VH: B4 VH with L93V, A110G
VL: B4 VL with R18K, A19V, M21I, S22N
